The supplement of paper PMC12764529
± gives the half width of the 95% confidence interval.

Tests used:
[1] = folding stability dG unfold (combined trypsin and chymotrypsin); higher = more stable
Summary of the method: (§1)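 Unfolding free energy was derived, per protease or combined, against a sequence-predicted unfolded-state K50 and a shared folded-state K50, starting from K50 inferred by Bayesian fitting of sequencing counts. Digestion with trypsin and chymotrypsin was carried out on designed mini-proteins under 80 residues without cysteine in a PA-tagged cDNA display construct. Only designs with AlphaFold2 dimer inter-PAE above 15 were kept.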

[2] = folding stability dG unfold from trypsin proteolysis; higher = more stable
Summary of the method: as §1

[3] = folding stability dG unfold from chymotrypsin proteolysis; higher = more stable
Summary of the method: as §1

Sequence	folding stability dG unfold [1] [kcal/mol]	folding stability dG unfold [2] [kcal/mol]	folding stability dG unfold [3] [kcal/mol]
SAGGSAGGSAGGSIVVRITPNPETGTVTIDVYRVLPPGVLRPGAGFTVPLSLIPPGAVVGSAGGSAGGSAGG [r7_455_TrMRF]	1.09 ± 0.053	0.973 ± 0.018	1.17 ± 0.047
SAGGSAGGSAGGSKDITITHEHNPNGWYRVKIRFPDNGKKIEIWVPAGRSVEEALDWLFSAGGSAGGSAGGS [r4_393_TrROS]	3.25 ± 0.12	3.06 ± 0.12	3.2 ± 0.038
SAGGSAGGSAGGSKELTVLVVEKNEDGTLTVRKFKIELKDGELKIVEEEEKTVPLEELKSAGGSAGGSAGGS [r4_389_TrROS_Hall]	2.04 ± 0.12	1.41 ± 0.074	2.42 ± 0.037
SAGGSAGGSAGGSKETVKIAIKVKPGEKEITIEIKGKKYKVKVEEKDGLLYLTVSKEDLSAGGSAGGSAGGS [r4_430_TrROS_Hall]	3.34 ± 0.32	4.4 ± 0.54	3.44 ± 0.22
SAGGSAGGSAGGSKIRLKINMTEEELKELLKKLFPNAKVTRIERKKDGSIYVEIELEPESAGGSAGGSAGGS [r4_95_TrROS_Hall]	3.09 ± 0.11	2.94 ± 0.11	3.23 ± 0.082
SAGGSAGGSAGGSKKKKIIIVVPKEELSEEQIKALKDLGYEIEIVEVEKKPVKVKKKKKSAGGSAGGSAGGS [r4_294_TrROS_Hall]	1.53 ± 0.22	0.62 ± 0.068	2.08 ± 0.12
SAGGSAGGSAGGSKKKVLYIKIDVKPNMTPEEVAKLLQEKFGVKIKKVEVENGYLKIYFSAGGSAGGSAGGS [r4_469_TrROS_Hall]	3.49 ± 0.048	2.82 ± 0.062	3.8 ± 0.044
SAGGSAGGSAGGSKKYFFKIKKIKVETKLEVNEDGSLTEEKKIEIEIELRELPSLEDLLSAGGSAGGSAGGS [r4_450_TrROS_Hall]	4.16 ± 0.2	3.56 ± 0.25	4.62 ± 0.17
SAGGSAGGSAGGSKPKVKITIEKNKETNEYTITIEKDGKKYTFVVKNLKPDDPAIKKALSAGGSAGGSAGGS [r4_328_TrROS_Hall]	2.55 ± 0.09	1.1 ± 0.043	3.007 ± 0.03
SAGGSAGGSAGGSKTVLLKVNGKLVLKELKVEVELEAEPETTTTTTTTTTLKPGETKTLSAGGSAGGSAGGS [r4_215_TrROS_Hall]	0.109 ± 0.096	-0.499 ± 0.17	0.397 ± 0.11
SAGGSAGGSAGGSKTYRIYFKDNNKVITVKSKEDLKAALEKAGYTISEEDLDKIVKIEPSAGGSAGGSAGGS [r4_104_TrROS_Hall]	1.8 ± 0.087	1.69 ± 0.046	1.81 ± 0.07
SAGGSAGGSAGGSLAFEGSFRFRKLKLTFKRKLTRTRPDGEPEEFEEELELEVEVVLPVSAGGSAGGSAGGS [r4_418_TrMRF]	4.21 ± 0.4	3.77 ± 0.09	4.84 ± 0.15
SAGGSAGGSAGGSLEAIRKAIEEAQKNGHTVPISVRHPNGKDFTFEIEIQVVKPPPDEKSAGGSAGGSAGGS [r10_573_TrROS]	1.46 ± 0.13	1.28 ± 0.043	1.47 ± 0.066
SAGGSAGGSAGGSLEIEITFELPDDVRLRIRARIEPLPDGSLKVEVEIELIPVKPDEDLSAGGSAGGSAGGS [r10_241_TrMRF]	3.09 ± 0.21	3.17 ± 0.15	2.9 ± 0.089
SAGGSAGGSAGGSLETRPVLLILKDEEGKPYAVARLEVRELPNGGVEVTVTEIVPAEELSAGGSAGGSAGGS [r4_117_TrMRF]	1.36 ± 0.11	0.912 ± 0.035	1.5 ± 0.095
SAGGSAGGSAGGSLPLILRLAEENGFSVSAVPIPETGTYKAVVTLPDGKPITIELPLTLSAGGSAGGSAGGS [r4_121_TrMRF]	0.804 ± 0.2	0.295 ± 0.12	1.04 ± 0.33
SAGGSAGGSAGGSMATITPEGDKYLVTITNPDGSTTTKEFDSLEEVKKLPSSYPIEFSDSAGGSAGGSAGGS [r4_447_JUSTAS]	1.52 ± 0.094	2.11 ± 0.065	0.802 ± 0.026
SAGGSAGGSAGGSMIIRIETKDGKIIEIEIKEDEDKTPEEIAKELAKKYNIKKIEIFEPSAGGSAGGSAGGS [r4_116_TrROS_Hall]	3.44 ± 0.096	3.27 ± 0.12	3.57 ± 0.062
